Measured values from patent US20020103121A1.

Molecular target: GAL4 activation domain-E2F-1 hybrid protein (GAD.E2F-1) (human)
Assay: cell-based or functional assay

“LexA-DP-1^172/173 hybrid protein (pLEX-DP-1/MT) (from UniProt Q08639 1-410)” was tested, and the activity in the yeast two-hybrid assay relative to wild-type DP-1 (% reduction relative to wild-type DP-1) was 50 and the response of the E2F binding site reporter in yeast was 50 % reduction.
